Experimental findings from publication PMC7401801 are described below.

In this assay the target is CRM1 (UniProt O14980). Nature of the assay: GFP IP of CRM1-EGFP, Flag blot. As to conditions: reference: Flag-TFEB wild type; sites S142.

As for “TFEB (from UniProt P19484) Flag-TFEB(S142A)”, the “binding against the reference” value is on record as “weaker”.
